We go through 24 molecules from patent US20100093028A1 (DANISCO US, published 2010).

The target in experiment [1] is T1, vascular endothelial growth factor (UniProt P15692-4 27-191, limits assumed, biotin label (Example 5), site not stated).
T1 construct: also called VEGF; VegF
Nature of the experiment: BioVeris ECL competition with a labeled competitor; legend: +++ = IC50 about 2-10 µM. As to the method:
(§1) The resulting vectors were used to transform B. subtilis BG6006 host cells. Cultures were grown in 500 ml of MBD medium and the BBI species were purified essentially as described above and by Vogtentanz et al., 2007 (Protein Expr Purif 55:40-52 [2007]). BioVeris binding assays were performed essentially as outlined in Example 5 and by the manufacturer. Binding of the modified variant BBIs to their respective target proteins was measured using a BioVeris® binding assay, which is a competition assay that determines the binding of the modified variant BBIs to its target protein (e.g. VEGF, FGF5, TGFβ and TNFα) in the presence or absence of a labeled competitor. The competitor can be a labeled monoclonal antibody raised against the target protein or a labeled native receptor of the target protein. The electrochemiluminesent binding assays were performed essentially as described in Example 5. The apparent IC50s were determined from binding data by determining the concentration of the BBI species needed to reduce the BioVeris signal by one half. BBI scaffolds without the target binding peptide in the chymotrypsin inhibitory loop were used as negative controls.

Experiment [2] deals with T2, fibroblast growth factor 5 (UniProt P12034 21-268, limits assumed).
T2 construct: also called FGF-5; FGF5
T2 sequence (looked up): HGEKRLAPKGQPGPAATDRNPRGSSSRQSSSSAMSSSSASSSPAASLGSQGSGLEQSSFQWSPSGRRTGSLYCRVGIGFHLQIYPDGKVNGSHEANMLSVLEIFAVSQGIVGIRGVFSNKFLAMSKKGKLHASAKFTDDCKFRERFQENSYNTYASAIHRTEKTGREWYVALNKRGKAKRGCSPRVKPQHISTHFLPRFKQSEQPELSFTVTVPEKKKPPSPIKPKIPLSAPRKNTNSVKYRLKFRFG
Nature of the experiment: BioVeris ECL competition with a labeled competitor; legend: ++ = IC50 about 10-50 µM. As to the method: as §1

Experiment [3] addresses T3, Transforming growth factor β1 (UniProt P01137 279-390).
T3 construct: also called TGFβ1; TGFβ
The experiment is described as above. As to the method:
as §1

Experiment [4] deals with T3, Transforming growth factor β1. Nature of the experiment: BioVeris ECL competition; negative control for TGFβ binding.
Experiment [5] deals with T1, vascular endothelial growth factor. The experiment is described as follows: BioVeris ECL competition; wild-type negative control for VEGF binding.
In experiment [6] the target is T2, fibroblast growth factor 5. The experiment is described as follows: BioVeris ECL competition; wild-type negative control for FGF-5 binding.
The target of experiment [7] is T4, Tumor necrosis factor α (UniProt P01375 77-233).
T4 construct: also called TNFα; TNF
The experiment is described as follows: BioVeris ECL competition with a labeled competitor; legend: ++ = IC50 about 10-50 µM. As to the method:
as §1

Experiment [8] deals with T1, vascular endothelial growth factor. The description is as above. As to the method:
as §1

Experiment [9] has as its target T4, Tumor necrosis factor α. Nature of the experiment: BioVeris ECL competition with a labeled competitor; legend: + = IC50 about 50-250 µM. As to the method: as §1
In experiment [10] the target is T4, Tumor necrosis factor α. The experiment is described as follows: BioVeris ECL competition; negative control for TNFα binding.

T4 sequence (P01375 77-233 limits assumed): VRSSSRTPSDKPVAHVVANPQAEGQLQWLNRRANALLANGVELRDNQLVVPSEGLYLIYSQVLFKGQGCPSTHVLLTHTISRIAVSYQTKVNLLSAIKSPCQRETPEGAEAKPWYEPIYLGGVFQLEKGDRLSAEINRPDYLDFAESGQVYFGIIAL
T3 sequence (P01137 279-390 limits assumed): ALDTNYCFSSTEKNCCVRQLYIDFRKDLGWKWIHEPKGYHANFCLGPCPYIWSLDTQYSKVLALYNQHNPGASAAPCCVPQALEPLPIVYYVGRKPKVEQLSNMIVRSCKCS
T1 sequence (P15692 other isoform, or with tags, fused parts or gaps limits assumed): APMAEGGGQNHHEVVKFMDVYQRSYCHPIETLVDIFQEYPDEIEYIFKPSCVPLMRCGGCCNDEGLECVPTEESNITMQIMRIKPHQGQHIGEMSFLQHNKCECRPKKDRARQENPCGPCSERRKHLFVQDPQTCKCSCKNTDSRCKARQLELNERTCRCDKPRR

B1: BBtc-AV (designed binder)
chain: DPSSKWEACCDRCACTKSIPPQCHCADIRLNSCHSACESCACYNLYGWTCRCFDITDFCYKPCSG
notes: also called BBItc-AV
By IC50 is commonly meant the point on the concentration scale where inhibition reaches its midpoint. Turning to B1, in experiment [1], the IC50 was 2 to 10 µM.

B2: BBIt-AV (designed binder)
chain: DDESSKPCCDQCACTKSNPPQCRCSDMRLNSCHSACKSCACYNLYGWTCFCVDITDFCYEPCKPSE
notes: BBI-AV without its 5 C-terminal amino acids; also called truncated BBI-AV; unmodified BBIt-AV
The molecule B2 came in with a half-maximal inhibitory concentration (IC50) in experiment [1] of 2 to 10 µM.

B3: BBIt-VEGKD-A13I-S25K-L29P-V52K (designed binder)
chain: DPDDESSKPCCDQCICTKSNPPQCRCKDMRPNSCHSACKSCICKYDLYWWCFCKDITDFCYEPCKPSE
notes: also called VegKD-Q
On to B3, for which the 50% inhibitory concentration (IC50) in experiment [1] is 2 to 10 µM.

B4: BBIt-AV-A13I-L29P-A40K-F50T-V52A (designed binder)
chain: DPDDESSKPCCDQCICTKSNPPQCRCSDMRPNSCHSACKSCKCYNLYGWTCTCADITDFCYEPCKPSE
notes: also called TA5; quintuple variant
In turn, B4 gave an IC50 in experiment [1] of 2 to 10 µM.

B5: MM007-Q-BBIt-FGF-5 (designed binder)
chain: DPDDESSKPCCDQCICTKSNPPQCRCSDMRPNSCHSACKSCACRTQPYPLCTCADITDFCYEPCKPSE
notes: also called BBIt-MM007-Q-A13I-L29P-F50T-V52A
In experiment [2], B5 showed a half-inhibitory concentration (IC50) of 10 to 50 µM.

B6: MM021W-Q-BBIt-TGFβ1 (designed binder)
chain: DPDDESSKPCCDQCICTKSNPPQCRCSDMRPNSCHSACKSCACKHNVDWLCTCADITDFCYEPCKPSE
notes: also called MM0212-Q-BBIt-TGF; BBIt-MM021W-Q-A13I-L29P-F50T-V52A
B6 had an IC50 in [3] of 10 to 50 µM.

B7: WTQ-Q-BBIt-TGFβ1 (designed binder)
chain: DPDDESSKPCCDQCICTKSNPPQCRCSDMRPNSCHSACKSCACWTQHIHNCTCADITDFCYEPCKPSE
notes: also called BBIt-WTQ-Q-A13I-L29P-F50T-V52A
In turn, B7 returned a concentration for half-maximal inhibition (IC50) in [3] of 10 to 50 µM.

B8: FGFps2-Q-BBIt-FGF-5 (designed binder)
chain: DPDDESSKPCCDQCICTKSNPPQCRCSDMRPNSCHSACKSCACTWIDSTPCTCADITDFCYEPCKPSE
notes: also called BBIt-FGFps2-Q-A13I-L29P-F50T-V52A
As to B8, the figures for the half-maximal inhibitory concentration (IC50) in experiment [4] and in experiment [2] were > 250 µM and 10 to 50 µM, respectively.

B9: BBIt-AV-A13I-S25K-M27A-L29R-S31E-A40K-F50Q-V52Q (designed binder)
chain: DPDDESSKPCCDQCICTKSNPPQCRCKDARRNECHSACKSCKCYNLYGWTCQCQDITDFCYEPCKPSE
notes: the entry carries an N-terminal DP; also called QQ8
For B9, the IC50 in [1] is 2 to 10 µM.

B10: BBIt-AV-A13I-A40K-F50T-V52A (designed binder)
chain: DPDDESSKPCCDQCICTKSNPPQCRCSDMRLNSCHSACKSCKCYNLYGWTCTCADITDFCYEPCKPSE
notes: the entry as printed carries an N-terminal DP from the linker
Turning to B10, the IC50 in experiment [1] fell in the range of 2 to 10 µM.

B11: BBIt-AV-A13I-S25K-M27A-L29R-S31A-A40H-F50R-V52L (designed binder)
chain: DPDDESSKPCCDQCICTKSNPPQCRCKDARRNACHSACKSCHCYNLYGWTCRCLDITDFCYEPCKPSE
notes: the entry carries an N-terminal DP; also called RL8
Consider B11, for which, in [1], the IC50 lay within 2 to 10 µM.

B12: BBIt-AV-A13I-S25R-M27A-L29P-S31A-A40H-F50K-V52T (designed binder)
chain: DPDDESSKPCCDQCICTKSNPPQCRCRDARPNACHSACKSCHCYNLYGWTCKCTDITDFCYEPCKPSE
notes: the entry carries an N-terminal DP; also called KT8
Molecule B12 yielded an IC50 in [1] of 2 to 10 µM.

B13: PEN3-Q-BBIt-TGFβ1 (designed binder)
chain: DPDDESSKPCCDQCICTKSNPPQCRCSDMRPNSCHSACKSCACPENINVLPCTCADITDFCYEPCKPSE
notes: also called BBIt-PEN3-Q-A13I-L29P-F50T-V52A
Regarding B13, in experiment [3], the half-maximal inhibitory concentration (IC50) was 10 to 50 µM.

B14: wild-type soybean Bowman-Birk protease inhibitor (other)
chain: DDESSKPCCDQCACTKSNPPQCRCSDMRLNSCHSACKSCICALSYPAQCFCVDITDFCYEPCKPSEDDKEN
notes: Negative control with the native chymotrypsin loop ALSYPAQ; also called sBBI; BBI
On to B14, for which the IC50 in experiment [5] and in experiment [6] was > 250 µM throughout.

B15: BBdb-AV (designed binder)
chain: DPSESSKPCCDQCACTKSIPPQCRCTDVRLNSCHSACSSCACYNLYGWTCVCVDMKDFCYEPCK
notes: also called BBIdb-AV
For the molecule B15, in [1], the IC50 lay within 2 to 10 µM.

B16: BBIt-TNFα-T1-A13I-S25R-M27A-L29P-S31A-F50K-V52T (designed binder)
chain: DPDDESSKPCCDQCICTKSNPPQCRCRDARPNACHSACKSCACRYWQDIPCKCTDITDFCYEPCKPSE
notes: also called BBIt-TNF-T1
Turning to B16, in experiment [7], the IC50 was 10 to 50 µM.

B17: BBIt-VEGF-V5-A13I-S25R-M27A-L29P-S31A-F50K-V52T (designed binder)
chain: DPDDESSKPCCDQCICTKSNPPQCRCRDARPNACHSACKSCACKPSSASSCKCTDITDFCYEPCKPSE
notes: also called BBIt-AV-V5
Turning to B17, the half-inhibitory concentration (IC50) in experiment [8] was 10 to 50 µM.

B18: BBIt-TNFα-T3-A13I-S25R-M27A-L29P-S31A-F50K-V52T (designed binder)
chain: DPDDESSKPCCDQCICTKSNPPQCRCRDARPNACHSACKSCACDMIMVSICKCTDITDFCYEPCKPSE
notes: also called BBIt-TNF-T3
As for B18, the half-maximal inhibitory concentration (IC50) in experiment [9] fell in the range of 50 to 250 µM.

B19: BBIt-TNFα-T2-A13I-S25R-M27A-L29P-S31A-F50K-V52T (designed binder)
chain: DPDDESSKPCCDQCICTKSNPPQCRCRDARPNACHSACKSCACAPEPILACKCTDITDFCYEPCKPSE
notes: also called BBIt-TNF-T2
Regarding B19, the half-maximal inhibitory concentration (IC50) in experiment [9] was in the range of 50 to 250 µM.

B20: BBIt-VEGF-V3-A13I-S25R-M27A-L29P-S31A-F50K-V52T (designed binder)
chain: DPDDESSKPCCDQCICTKSNPPQCRCRDARPNACHSACKSCACRPTGHSLCKCTDITDFCYEPCKPSE
notes: also called BBIt-AV-V3
In experiment [8], B20 yielded an IC50 of 10 to 50 µM.

B21: BBIt-VEGF-V1-A13I-S25R-M27A-L29P-S31A-F50K-V52T (designed binder)
chain: DPDDESSKPCCDQCICTKSNPPQCRCRDARPNACHSACKSCACSKHSQITCKCTDITDFCYEPCKPSE
notes: also called BBIt-AV-V1
Regarding B21, the figures for the IC50 in experiment [10] and in experiment [8] were > 250 µM and 10 to 50 µM, respectively.

B22: BBIt-VEGF-V6-A13I-S25R-M27A-L29P-S31A-F50K-V52T (designed binder)
chain: DPDDESSKPCCDQCICTKSNPPQCRCRDARPNACHSACKSCACPVTKRVHCKCTDITDFCYEPCKPSE
notes: also called BBIt-AV-V6
In the case of B22, the half-maximal inhibitory concentration (IC50) in experiment [1] was in the range of 2 to 10 µM.

B23: BBIt-VEGF-V4-A13I-S25R-M27A-L29P-S31A-F50K-V52T (designed binder)
chain: DPDDESSKPCCDQCICTKSNPPQCRCRDARPNACHSACKSCACKHSAKAECKCTDITDFCYEPCKPSE
notes: also called BBIt-AV-V4
B23 had a half-inhibitory concentration (IC50) in experiment [1] of 2 to 10 µM.

B24: BBIt-VEGF-V2-A13I-S25R-M27A-L29P-S31A-F50K-V52T (designed binder)
chain: DPDDESSKPCCDQCICTKSNPPQCRCRDARPNACHSACKSCACKTNPSGSCKCTDITDFCYEPCKPSE
notes: also called BBIt-AV-V2
As to B24, the IC50 in experiment [1] is 2 to 10 µM.
